Earlier results on four substances are cited in publication PMC8625919.

“And” between values parts separate entries of the source, which are not always exact repeats. Equal entries are not always repeated.

In series [1] the target is VEGFR-3D1-5 D1-5 (Homo sapiens) (UniProt P35916). As to the kind of experiment: ITC.
The target in series [2] is VEGFR-2D2-3 D2-3 (Homo sapiens) (UniProt P35968). The series is described as follows: ITC.
Series [3] deals with VEGFR-3D1-3 D1-3 (Homo sapiens) (UniProt P35916). The series is described as follows: ITC. For orientation: ITC needs no label: the signal is the heat of the interaction.
Series [4] deals with VEGFR-3D1-2 D1-2 (Homo sapiens) (UniProt P35916). The series is described as follows: ITC.
For series [5], the target named is VEGFR-3 D1-2 (Homo sapiens) (UniProt P35916).
The target of series [6] is VEGFR-3 D1-3 (Homo sapiens) (UniProt P35916).
Series [7] addresses VEGFR-2D2-3 D2-3 (Homo sapiens) (UniProt P35968). As to the kind of experiment: SPR. In general terms: SPR reads the build-up and loss of mass on a sensor chip optically.
Series [8] concerns the target VEGFR-3 D1-5 (Homo sapiens) (UniProt P35916).
For series [9], the target named is VEGFR-2 (Homo sapiens) (UniProt P35968).
The target in series [10] is VEGFR-1D1-7 D1-7 (Homo sapiens) (UniProt P17948). The series is described as follows: ITC.
The target in series [11] is VEGFR-1D1-3 D1-3 (Homo sapiens) (UniProt P17948). The series is described as follows: ITC.
The target of series [12] is Neuropilin-1 (Homo sapiens) (UniProt O14786). As to the kind of experiment: ELISA type assay with AP-VEGF164. (In general: ELISA stands for enzyme-linked immunosorbent assay.)
Sequence of UniProt O14786 (O14786 22-923): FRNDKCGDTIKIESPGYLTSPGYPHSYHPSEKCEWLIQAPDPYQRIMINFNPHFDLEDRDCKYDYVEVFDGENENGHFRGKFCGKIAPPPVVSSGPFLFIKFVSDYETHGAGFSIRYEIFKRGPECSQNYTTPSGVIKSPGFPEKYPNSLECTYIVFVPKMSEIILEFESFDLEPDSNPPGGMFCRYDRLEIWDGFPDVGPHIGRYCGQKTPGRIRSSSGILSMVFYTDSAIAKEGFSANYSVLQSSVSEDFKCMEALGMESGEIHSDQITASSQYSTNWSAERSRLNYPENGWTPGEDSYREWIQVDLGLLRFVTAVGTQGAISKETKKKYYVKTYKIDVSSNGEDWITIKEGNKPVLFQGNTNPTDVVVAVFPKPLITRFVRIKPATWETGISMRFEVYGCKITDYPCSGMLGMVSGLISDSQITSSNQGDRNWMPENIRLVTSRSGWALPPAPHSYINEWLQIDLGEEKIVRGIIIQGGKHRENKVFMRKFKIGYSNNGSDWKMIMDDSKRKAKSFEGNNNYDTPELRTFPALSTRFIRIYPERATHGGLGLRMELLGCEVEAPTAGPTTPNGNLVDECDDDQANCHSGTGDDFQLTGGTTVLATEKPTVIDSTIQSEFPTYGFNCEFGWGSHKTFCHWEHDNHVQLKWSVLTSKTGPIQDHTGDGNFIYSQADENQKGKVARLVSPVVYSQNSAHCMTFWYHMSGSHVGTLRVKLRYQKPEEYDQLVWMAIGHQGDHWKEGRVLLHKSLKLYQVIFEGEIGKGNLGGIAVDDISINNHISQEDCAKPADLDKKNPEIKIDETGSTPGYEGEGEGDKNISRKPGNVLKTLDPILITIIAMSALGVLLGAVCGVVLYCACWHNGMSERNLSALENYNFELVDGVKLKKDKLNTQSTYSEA

Regarding VEGF-C (from UniProt P49767), the equilibrium dissociation constant (Kd) (commonly a measure of binding affinity in units of concentration) was 3.7 nM in series [1]; 16 nM in [2]; 140 nM in series [3]; 250 nM in [4]; 250 nM in [5]; 140 nM in [6]. The dissociation constant (Kd) in [7] is 18.2 nM; in series [8] it was 3.7 nM.

With VEGF-A (from UniProt P15692), the equilibrium dissociation constant (Kd) was 0.113 nM in series [9], 1.7 nM in [10] and 47 nM in series [11].

VEGF164 (from UniProt Q00731): in series [12], the Kd is 3 nM.

VEGF165 (from UniProt P15692): the Kd in [2] was 170 nM and 18 nM; in series [7] it was 36.7 nM.
